Variants at the floor of the assay were thinned out.
Experiments:
biotinyl-Val-oxazolone = experiment: self-aminoacylation, catalytic enhancement (BVO) (fold over background); higher = more active; k-Seq, kA / k0A0; sequences stand for … in GGGAAUGGAUCCACAUCUACGAAUUC…UUCACUGCAGACUUGACGAAGCUG
In short: (§1)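 The uncatalyzed rate is the low-activity peak of a bimodal Gaussian fit, and catalytic enhancement is median kA divided by it. The kA values came from pseudo-first-order fits, with 1000 bootstraps, of per-sequence fraction reacted measured by streptavidin capture, triplicate qPCR and Illumina sequencing. Mutagenized RNA pools with a 21-nt variable region (0.43 μM) were reacted with each biotinyl-aminoacyl-oxazolone at 2–1250 μM in 50 μL HEPES/NaCl/KCl/MgCl2/CaCl2 buffer with 5% acetonitrile, pH 6.9–7.0, for 90 minutes at room temperature.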

biotinyl-Trp-oxazolone = experiment: self-aminoacylation, catalytic enhancement (BWO) (fold over background); higher = more active; k-Seq, kA / k0A0; sequences stand for … in GGGAAUGGAUCCACAUCUACGAAUUC…UUCACUGCAGACUUGACGAAGCUG
In short: as §1

biotinyl-Leu-oxazolone = experiment: self-aminoacylation, catalytic enhancement (BLO) (fold over background); higher = more active; k-Seq, kA / k0A0; sequences stand for … in GGGAAUGGAUCCACAUCUACGAAUUC…UUCACUGCAGACUUGACGAAGCUG
In short: as §1

biotinyl-Met-oxazolone = experiment: self-aminoacylation, catalytic enhancement (BMO) (fold over background); higher = more active; k-Seq, kA / k0A0; sequences stand for … in GGGAAUGGAUCCACAUCUACGAAUUC…UUCACUGCAGACUUGACGAAGCUG
In short: as §1

biotinyl-Phe-oxazolone = experiment: self-aminoacylation, catalytic enhancement (BFO) (fold over background); higher = more active; k-Seq, kA / k0A0; sequences stand for … in GGGAAUGGAUCCACAUCUACGAAUUC…UUCACUGCAGACUUGACGAAGCUG
In short: as §1

biotinyl-Ile-oxazolone = experiment: self-aminoacylation, catalytic enhancement (BIO) (fold over background); higher = more active; k-Seq, kA / k0A0; sequences stand for … in GGGAAUGGAUCCACAUCUACGAAUUC…UUCACUGCAGACUUGACGAAGCUG
In short: as §1

Row | Sequence | self-aminoacylation (biotinyl-Val-oxazolone) | self-aminoacylation (biotinyl-Trp-oxazolone) | self-aminoacylation (biotinyl-Leu-oxazolone) | self-aminoacylation (biotinyl-Met-oxazolone) | self-aminoacylation (biotinyl-Phe-oxazolone) | self-aminoacylation (biotinyl-Ile-oxazolone)
1 | AUUCACCUAGGUCUUCGGGUC [Fam2.2 aminoacylation ribozyme variant] | 1.68 | 1.79 | 2.37 | 1.33 | 3.66 | 1.65
2 | AUUCACCUAGGUCUUCGGGUU [Fam2.2 aminoacylation ribozyme variant] | 2.98 | 2.94 | 3.66 | 3.09 | 13.8 | 2.82
3 | AUUCACCUAGGUCUUUGGGUG [Fam2.2 aminoacylation ribozyme variant] | 4.09 | 6.83 | 9.98 | 6.91 | 56.1 | 4.28
4 | AUUCACCUAGGUGAUCGGGUA [Fam2.2 aminoacylation ribozyme variant] | 2.48 | 3.59 | 3.14 | 3.18 | 9.83 | 2.67
5 | AUUCACCUAGGUGAUCGGGUG [Fam2.2 aminoacylation ribozyme variant] | 2.62 | 3.34 | 3.27 | 2.81 | 16.6 | 2.52
6 | AUUCACCUAGGUUAACGGGUG [Fam2.2 aminoacylation ribozyme variant] | 2.1 | 2.83 | 3.22 | 2.55 | 24.8 | 2
7 | AUUCACCUAGGUUAUCGGAUG [Fam2.2 aminoacylation ribozyme variant] | 0.986 | 0.723 | 0.673 | 0.712 | 0.355 | 0.661
8 | AUUCACCUAGUACAUCGGGUG [Fam2.2 aminoacylation ribozyme variant] | 1.65 | 2.21 | 2.71 | 2.21 | 10.4 | 1.55
9 | AUUCACCUAGUGCAUCGGGUG [Fam2.2 aminoacylation ribozyme variant] | 1.63 | 1.17 | 2.12 | 1.62 | 5.22 | 1.35
10 | AUUCACCUAGUUCACCGGGUG [Fam2.2 aminoacylation ribozyme variant] | 2.41 | 3.92 | 3.58 | 3.25 | 15.6 | 2.37
11 | AUUCACCUAGUUCAUCGCGUG [Fam2.2 aminoacylation ribozyme variant] | 2.99 | 5.66 | 6.91 | 4.88 | 35.7 | 3.27
12 | AUUCACCUAGUUCAUCGGGUC [Fam2.2 aminoacylation ribozyme variant] | 1.17 | 0.582 | 0.903 | 0.906 | 0.49 | 0.996
13 | AUUCACCUAGUUCAUUGGGUG [Fam2.2 aminoacylation ribozyme variant] | 1.62 | 2.83 | 3.47 | 2.54 | 18.9 | 1.85
14 | AUUCACCUAGUUCUUCGGGUG [Fam2.2 aminoacylation ribozyme variant] | 2.43 | 2.9 | 3.31 | 2.71 | 18.1 | 2.2
15 | AUUCACCUAGUUGAUCGGGUG [Fam2.2 aminoacylation ribozyme variant] | 2.79 | 4.26 | 4.3 | 3.66 | 23.9 | 2.5
16 | AUUCACCUAUGUCUUCGGGUG [Fam2.2 aminoacylation ribozyme variant] | 2.02 | 2.35 | 2.67 | 2.42 | 14.7 | 2.11
17 | AUUCACCUCGAUCAUCGGGUG [Fam2.2 aminoacylation ribozyme variant] | 3.18 | 3.99 | 5.94 | 4.77 | 39.4 | 3.11
18 | AUUCACCUCGGACAUCGGGUG [Fam2.2 aminoacylation ribozyme variant] | 4.74 | 5.08 | 6.78 | 4.76 | 40.1 | 3.09
19 | AUUCACCUCGGUAAUCGGGUG [Fam2.2 aminoacylation ribozyme variant] | 3.32 | 4.41 | 6.13 | 4.55 | 31.8 | 4.01
20 | AUUCACCUCGGUCAGCGGGUG [Fam2.2 aminoacylation ribozyme variant] | 3.37 | 4.8 | 5.84 | 4.51 | 28.3 | 3.13
21 | AUUCACCUCGGUCAUCGCGUG [Fam2.2 aminoacylation ribozyme variant] | 7.67 | 12.9 | 16 | 11.4 | 109 | 6.77
22 | AUUCACCUCGGUCAUCGGGGG [Fam2.2 aminoacylation ribozyme variant] | 2.67 | 2.72 | 2.98 | 3.13 | 12.8 | 2.66
23 | AUUCACCUCGGUUAUCGGGUG [Fam2.2 aminoacylation ribozyme variant] | 4.58 | 7.82 | 7.66 | 5.58 | 41.1 | 4.48
24 | AUUCACCUCUGUCAUCGGGUG [Fam2.2 aminoacylation ribozyme variant] | 4.06 | 7.31 | 10.1 | 7.32 | 54.5 | 3.8
25 | AUUCACCUGGCUCAUCGGGUG [Fam2.2 aminoacylation ribozyme variant] | 3.81 | 2.44 | 3.2 | 1.79 | 18.3 | 2.18
26 | AUUCACCUGGGGCAUCGGGUG [Fam2.2 aminoacylation ribozyme variant] | 6.59 | 7.38 | 5.93 | 5.8 | 36.1 | 4.42

Row | Sequence | self-aminoacylation (biotinyl-Val-oxazolone) | self-aminoacylation (biotinyl-Trp-oxazolone) | self-aminoacylation (biotinyl-Leu-oxazolone) | self-aminoacylation (biotinyl-Met-oxazolone) | self-aminoacylation (biotinyl-Phe-oxazolone) | self-aminoacylation (biotinyl-Ile-oxazolone)
27 | AUUCACCUGGGUCAUCGGGUA [Fam2.2 aminoacylation ribozyme variant] | 10.6 | 14.8 | 22.3 | 18.6 | 47.8 | 8.3
28 | AUUCACCUGGGUGAUCGGGUG [Fam2.2 aminoacylation ribozyme variant] | 4.45 | 6.7 | 4.89 | 4.39 | 24.1 | 3.9
29 | AUUCACCUGGGUUAUCGGGUG [Fam2.2 aminoacylation ribozyme variant] | 4 | 5.56 | 6.24 | 6.06 | 36.6 | 3.35
30 | AUUCACCUUCGUCAUCGGGUG [Fam2.2 aminoacylation ribozyme variant] | 2.38 | 2.79 | 3.28 | 2.3 | 14.9 | 2.12
31 | AUUCACCUUGGUCAUCAGGUG [Fam2.2 aminoacylation ribozyme variant] | 1.39 | 2.15 | 2.49 | 1.9 | 7.28 | 1.7
32 | AUUCACCUUGGUCAUCGGGUA [Fam2.2 aminoacylation ribozyme variant] | 2.98 | 2.75 | 2.64 | 3.09 | 5.21 | 2.5
33 | AUUCACCUUGGUCCUCGGGUG [Fam2.2 aminoacylation ribozyme variant] | 3.67 | 5.17 | 8.12 | 5.93 | 39.2 | 3.53
34 | AUUCACGUACGUCAUCGGGUG [Fam2.2 aminoacylation ribozyme variant] | 6.9 | 9.47 | 12.8 | 12.2 | 79.8 | 6.46
35 | AUUCACGUAGGUAAUCGGGUG [Fam2.2 aminoacylation ribozyme variant] | 3.22 | 4.53 | 5.06 | 3.84 | 23.1 | 2.91
36 | AUUCACGUAGGUCAUCAGGUG [Fam2.2 aminoacylation ribozyme variant] | 2.24 | 2.88 | 2.7 | 2.77 | 5.34 | 1.99
37 | AUUCACGUAGGUCCUCGGGUG [Fam2.2 aminoacylation ribozyme variant] | 5.83 | 8.52 | 12.1 | 9.66 | 64.9 | 5.5
38 | AUUCACUUAGGGCAUCGGGUG [Fam2.2 aminoacylation ribozyme variant] | 2.72 | 3.48 | 3.98 | 3.03 | 24.5 | 2.91
39 | AUUCACUUAGGUCAUCGGGUC [Fam2.2 aminoacylation ribozyme variant] | 1.2 | 1.06 | 0.969 | 1.22 | 0.826 | 1.04
40 | AUUCACUUAGGUCAUCGGUUG [Fam2.2 aminoacylation ribozyme variant] | 0.831 | 0.519 | 0.901 | 0.764 | 0.69 | 0.87
41 | AUUCACUUAGGUCCUCGGGUG [Fam2.2 aminoacylation ribozyme variant] | 2.96 | 4.66 | 6.52 | 4.58 | 35.8 | 3.12
42 | AUUCACUUUGGUCAUCGGGUG [Fam2.2 aminoacylation ribozyme variant] | 4.71 | 7.2 | 9.51 | 8.05 | 65.4 | 4.75
43 | AUUCAGCUAGGCCAUCGGGUG [Fam2.2 aminoacylation ribozyme variant] | 6.97 | 10.1 | 12.4 | 10.1 | 72.1 | 6.95
44 | AUUCAGCUAGGUCAUCGAGUG [Fam2.2 aminoacylation ribozyme variant] | 1.95 | 1.98 | 2.86 | 2.24 | 8.78 | 2.01
45 | AUUCAGCUAGGUCAUCGCGUG [Fam2.2 aminoacylation ribozyme variant] | 5.79 | 5.71 | 6.83 | 6.28 | 54.8 | 4.48
46 | AUUCAGCUAGGUCAUCGGGCG [Fam2.2 aminoacylation ribozyme variant] | 2.79 | 3.83 | 3.92 | 3.2 | 17.5 | 2.48
47 | AUUCAGCUAGGUCAUCGGGGG [Fam2.2 aminoacylation ribozyme variant] | 2.23 | 2.72 | 3.48 | 2.69 | 16.7 | 3.18
48 | AUUCAGCUAGGUCAUCGGGUA [Fam2.2 aminoacylation ribozyme variant] | 3.3 | 2.76 | 3.67 | 3.6 | 29.7 | 3.18
49 | AUUCAGCUUGGUCAUCGGGUG [Fam2.2 aminoacylation ribozyme variant] | 3.37 | 4.05 | 3.63 | 3.5 | 14 | 2.75
50 | AUUCAUCGAGGUCAUCGGGUG [Fam2.2 aminoacylation ribozyme variant] | 6.97 | 10.1 | 14.9 | 12 | 83.3 | 7.05
51 | AUUCAUCUAGGACAUCGGGUG [Fam2.2 aminoacylation ribozyme variant] | 2.74 | 3.07 | 3.59 | 3.39 | 17.3 | 2.75

Source: the supplement of paper PMC9233669
